Experimental findings from the Human Domainome abundance scans (Beltran et al. 2025) are described below.

± gives the uncertainty stated by the source.

B1: Chromodomain-helicase-DNA-binding protein 3, residues 374 to 426; numbered along this chain, Q12873 (parent)
chain: YETDHQDYCEVCQQGGEIILCDTCPRAYHLVCLDPELDRAPEGKWSCPHCEKE

In this data set the parent is B1. As to the kind of experiment: abundance fitness (aPCA) (normalised: wild type 0, dead -1); higher = more abundant; growth selection in yeast, the domain comes from the species named. The following applies: Homo sapiens.
On to A27K, for which the abundance fitness was -0.407 ± 0.41.
Take L20G: the abundance fitness was determined as 0.208 ± 0.099.
Then L20N, with 0.101 ± 0.15; and L20E, with -0.003 ± 0.14.
The result for L20T reads 0.262 ± 0.098; that for L20F, 0.037 ± 0.15; that for L20M, 0.047 ± 0.12.
Take L20Q: the abundance fitness is -0.143 ± 0.13.
Then L20D, with 0.015 ± 0.16; and L20V, with -0.078 ± 0.099.
The result for L20S reads 0.171 ± 0.095; that for L20P, 0.402 ± 0.11.
Turning to L20W, the abundance fitness is -0.205 ± 0.16.
In the case of L20C, the abundance fitness turned out to be 0.01 ± 0.15.
The result for L20Y reads 0.102 ± 0.16; that for L20K, 0.081 ± 0.11; that for L20I, 0.076 ± 0.17.
In the case of L20R, the abundance fitness was 0.149 ± 0.094.
For E17P, the abundance fitness is -0.558 ± 0.14.
Regarding E17A, the abundance fitness was -0.081 ± 0.1.
Then E17G, with -0.234 ± 0.094; and E17H, with -0.882 ± 0.33; and E17V, with -0.489 ± 0.11.
Turning to E17R, the abundance fitness is -0.148 ± 0.085.
Then E17T, with 0.053 ± 0.12; and E17I, with -0.353 ± 0.2; and E17D, with -0.047 ± 0.13.
The result for E17M reads 0.152 ± 0.13; that for E17C, -0.037 ± 0.11; that for E17N, 0.07 ± 0.17.
Take E17S: the abundance fitness was -0.087 ± 0.094.
For E17Q, the abundance fitness is -0.147 ± 0.14.
On to E17L, for which the abundance fitness is -0.258 ± 0.11.
The result for E17Y reads -0.031 ± 0.17.
E17F: the abundance fitness was -0.162 ± 0.14.
In the case of C12T, the abundance fitness was -0.813 ± 0.12.
The result for C12R reads -0.954 ± 0.094; that for C12H, -0.999 ± 0.17.
For C12P, the abundance fitness was -0.76 ± 0.13.
The result for C12G reads -0.845 ± 0.11.
Take C12D: the abundance fitness is -0.7 ± 0.34.
Then C12N, with -0.67 ± 0.17; and C12Y, with -0.871 ± 0.13.
The result for C12V reads -0.78 ± 0.14.
For C12F, the abundance fitness is -0.903 ± 0.23.
For the variant C12E, the abundance fitness is -0.83 ± 0.16.
Then C12W, with -0.836 ± 0.11; and C12I, with -0.947 ± 0.2; and C12S, with -0.956 ± 0.11.
For the variant C12K, the abundance fitness is -0.757 ± 0.15.
Then C12L, with -0.866 ± 0.099; and C12A, with -0.712 ± 0.15.
The result for I18P reads -0.191 ± 0.12; that for I18K, -0.124 ± 0.15; that for I18A, 0.024 ± 0.1.
In the case of I18F, the abundance fitness is -0.071 ± 0.15.
Consider I18W, for which the abundance fitness was -0.152 ± 0.14.
On to I18V, for which the abundance fitness is -0.297 ± 0.11.
In the case of I18N, the abundance fitness is -0.218 ± 0.18.
Take I18T: the abundance fitness stood at 0.131 ± 0.14.
For the variant I18L, the abundance fitness is -0.022 ± 0.099.
Then I18E, with 0.13 ± 0.14.
Take I18S: the abundance fitness is -0.26 ± 0.12.
The result for I18Y reads 0.162 ± 0.13; that for I18R, -0.12 ± 0.091.
Then I18Q, with -0.107 ± 0.14; and I18G, with -0.087 ± 0.11.
For I18C, the abundance fitness was -0.521 ± 0.19.
Then I18H, with 0.063 ± 0.16.
On to P25R, for which the abundance fitness is -0.235 ± 0.12.
On to P25Q, for which the abundance fitness is -0.39 ± 0.23.
The result for P25A reads 0.092 ± 0.14; that for P25H, -0.249 ± 0.26; that for P25W, -0.144 ± 0.14.
The result for P25N reads -0.204 ± 0.4.
The result for P25C reads 0.04 ± 0.18; that for P25F, -0.021 ± 0.37; that for P25S, -0.116 ± 0.13.
Take P25T: the abundance fitness was -0.004 ± 0.14.
Consider P25M, for which the abundance fitness is -0.227 ± 0.24.
For the variant P25D, the abundance fitness was -0.482 ± 0.28.
Then P25K, with -0.385 ± 0.18.
The result for P25I reads -0.261 ± 0.33.
Then R26D, with -0.159 ± 0.15.
As to R26E, the abundance fitness was -0.123 ± 0.13.
Then R26P, with -0.655 ± 0.17; and R26H, with -0.17 ± 0.18; and R26G, with -0.046 ± 0.091.
As for R26Q, the abundance fitness amounted to 0.417 ± 0.28.
The result for R26N reads -0.169 ± 0.16; that for R26C, -0.669 ± 0.24; that for R26A, -0.202 ± 0.11.
Then R26S, with 0.087 ± 0.1; and R26M, with -0.106 ± 0.16.
The result for R26I reads -0.445 ± 0.17; that for R26L, 0.155 ± 0.1.
As for R26V, the abundance fitness was -0.363 ± 0.1.
The result for R26Y reads -0.148 ± 0.15; that for Y8W, -0.086 ± 0.12.
The result for G15E reads -0.202 ± 0.19; that for G15D, -0.21 ± 0.27.
Then G15T, with 0.088 ± 0.18.
In the case of G15L, the abundance fitness is -0.366 ± 0.21.
With G15M, the abundance fitness turned out to be 0.084 ± 0.21.
Consider G15Q, for which the abundance fitness is -0.434 ± 0.27.
Then G15A, with 0.329 ± 0.18; and G15P, with -0.488 ± 0.31.
Turning to G15N, the abundance fitness was -0.065 ± 0.27.
The result for G15K reads 0.112 ± 0.27; that for G15W, -0.121 ± 0.2; that for G15C, -0.823 ± 0.34.
The result for G15V reads -0.609 ± 0.21.
As to G15Y, the abundance fitness is -0.03 ± 0.26.
C24T: the abundance fitness was -0.687 ± 0.17.
Consider C24G, for which the abundance fitness was -0.962 ± 0.14.
The result for C24K reads -0.919 ± 0.21; that for C24M, -0.914 ± 0.24.
The result for C24Y reads -1.34 ± 0.24; that for C24R, -0.951 ± 0.14.
For C24A, the abundance fitness was -0.799 ± 0.23.
The result for C24E reads -1.16 ± 0.26; that for C24F, -1.05 ± 0.23.
Take C24Q: the abundance fitness was -0.898 ± 0.24.
The result for C24D reads -0.754 ± 0.22; that for C24P, -1.11 ± 0.21.
The result for C24S reads -0.617 ± 0.15; that for C24W, -1.12 ± 0.19; that for C24V, -1.08 ± 0.15.
Then C24H, with -0.907 ± 0.25.
With C24I, the abundance fitness was -0.9 ± 0.35.
Take D22W: the abundance fitness is -0.013 ± 0.17.
With D22N, the abundance fitness was -0.008 ± 0.15.
Take D22P: the abundance fitness is -0.109 ± 0.18.
The result for D22A reads -0.31 ± 0.27; that for D22T, -0.222 ± 0.16.
Then D22Q, with 0.557 ± 0.18; and D22I, with -0.021 ± 0.24.
Then D22V, with -0.204 ± 0.12.
With D22M, the abundance fitness came to 0.008 ± 0.28.
Then D22H, with -0.388 ± 0.28; and D22R, with 0.053 ± 0.14; and D22C, with -0.229 ± 0.18.
The result for D22G reads -0.191 ± 0.16; that for D22F, -0.344 ± 0.19.
The result for D22Y reads -0.142 ± 0.22.
Regarding D22S, the abundance fitness amounted to 0.048 ± 0.15.
Take D22L: the abundance fitness was -0.171 ± 0.14.
With Y28E, the abundance fitness is -0.48 ± 0.21.
Then Y28R, with -0.256 ± 0.1; and Y28H, with 0.148 ± 0.13.
With Y28V, the abundance fitness was -0.284 ± 0.11.
The result for Y28F reads -0.145 ± 0.12.
The result for Y28D reads -0.593 ± 0.18; that for Y28T, -0.203 ± 0.14.
Consider Y28I, for which the abundance fitness is 0.013 ± 0.13.
As to Y28K, the abundance fitness is -0.578 ± 0.22.
Turning to Y28A, the abundance fitness is 0.122 ± 0.12.
Then Y28W, with 0.143 ± 0.14.
Y28P: the abundance fitness was -0.837 ± 0.2.
Then Y28G, with -0.191 ± 0.14.
For Y28C, the abundance fitness was -0.189 ± 0.15.
As to Y28M, the abundance fitness turned out to be 0.219 ± 0.14.
The result for Y28N reads -0.377 ± 0.14; that for Y28Q, -0.445 ± 0.14; that for Y28L, -0.059 ± 0.1.
The result for C21M reads -0.901 ± 0.21.
C21N: the abundance fitness is -0.903 ± 0.21.
